In patent US20240352128A1:

Experiments:
CD16b (human) = CD16b (human) (UniProt O75015); assay: FACS
CD16a (human) = CD16a (human) (UniProt P08637); assay: FACS
Sequence of CD16a (human) (P08637 17-254): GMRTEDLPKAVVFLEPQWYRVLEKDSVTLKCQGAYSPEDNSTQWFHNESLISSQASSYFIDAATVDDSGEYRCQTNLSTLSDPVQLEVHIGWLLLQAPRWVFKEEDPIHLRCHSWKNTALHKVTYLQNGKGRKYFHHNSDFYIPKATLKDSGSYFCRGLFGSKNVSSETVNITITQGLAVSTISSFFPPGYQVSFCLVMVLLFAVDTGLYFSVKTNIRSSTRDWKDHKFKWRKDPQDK

Sequence of CD16b (human) (O75015 17-200): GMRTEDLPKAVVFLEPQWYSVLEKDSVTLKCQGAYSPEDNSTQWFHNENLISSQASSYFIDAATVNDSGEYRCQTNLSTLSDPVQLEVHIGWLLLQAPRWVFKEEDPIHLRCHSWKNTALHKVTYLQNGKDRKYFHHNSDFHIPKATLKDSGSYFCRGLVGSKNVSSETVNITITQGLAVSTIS

| EC50 (CD16b (human)) | EC50 (CD16a (human)) | Substance |
| --- | --- | --- |
| 401 µM | – | CD16A-mIgG1 |
| 1440 µM | 1950 µM | mouse IgG |
